Results on 2 substances are retold here after patent US20210032287A1.

The test has as its target Syntaxin-1 (GST-tagged) (Homo sapiens (Human)) (UniProt Q16623). As to the kind of experiment: ELISA-based competition assay; peptide (0.1, 0.5, 1 mM) preincubated with GST-Syntaxin-1 (10 or 5 nM), added to His-Munc18 (100 nM) on a nickel plate; anti-GST detection, A450.

Chain of Syntaxin-1 (GST-tagged) (Homo sapiens (Human)) (Q16623 1-261 limits assumed): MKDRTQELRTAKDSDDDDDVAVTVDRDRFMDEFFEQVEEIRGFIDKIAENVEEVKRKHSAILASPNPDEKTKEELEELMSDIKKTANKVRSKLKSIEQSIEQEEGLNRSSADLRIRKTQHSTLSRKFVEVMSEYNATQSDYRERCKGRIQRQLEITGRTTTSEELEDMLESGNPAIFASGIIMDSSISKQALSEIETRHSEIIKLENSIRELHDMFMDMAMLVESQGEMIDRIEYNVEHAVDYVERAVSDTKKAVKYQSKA

“Ac-His-Ala-Leu-Arg-Phe-Trp-NH2 (peptide)” had a maximum inhibition of Munc18/Syntaxin-1 binding of 37%.
On to Ac-HILDMW-NH2, for which the maximum inhibition of Munc18/Syntaxin-1 binding came to 67%.
